Data taken from paper PMC5758831, “A proline deletion in IFNAR1 impairs IFN-signaling and underlies increased resistance to tuberculosis in humans” (Nature Communications, 2018).

Legend:
[1] = target: T1, hIFNAR1-ECD-Del (extracellular domain of human IFNAR1 with the Pro335 deletion) (human, UniProt P17181 28-424, delete P335); assay: SPR; ProteOn XPR36, HTG chip; His-tagged hIFNAR1-ECD or hIFNAR1-ECD-Del (25 µg/ml in TBS) immobilised on the nickel activated chip; ReBif (hIFN-β) in TBS as analyte at various concentrations; TBS running buffer; Langmuir binding model; in the absence of IFNAR2; settings: both partners purified
T1 construct: Naturally occurring variant, made by site-directed mutagenesis of hIFNAR1-ECD; N-terminal 6xHis by the cloning paragraph, C-terminal His-tag by the SPR paragraph; also called IFNAR1Del; not shown: 6xHis, N-terminal, kept
T1 sequence (looked up): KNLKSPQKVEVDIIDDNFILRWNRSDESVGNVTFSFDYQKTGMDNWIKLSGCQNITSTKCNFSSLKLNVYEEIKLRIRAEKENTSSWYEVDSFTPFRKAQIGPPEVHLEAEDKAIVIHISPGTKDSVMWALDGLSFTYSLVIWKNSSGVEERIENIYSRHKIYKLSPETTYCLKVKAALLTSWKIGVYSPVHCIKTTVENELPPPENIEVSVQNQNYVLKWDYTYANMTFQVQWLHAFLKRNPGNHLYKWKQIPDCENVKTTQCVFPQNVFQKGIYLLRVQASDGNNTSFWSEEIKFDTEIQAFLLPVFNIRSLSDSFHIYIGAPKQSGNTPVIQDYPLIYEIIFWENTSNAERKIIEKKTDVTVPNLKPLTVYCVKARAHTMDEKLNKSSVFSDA

[2] = target: T2, hIFNAR1-extracellular domain (ECD) (human, UniProt P17181 28-424); assay: as above; settings: both partners purified
T2 construct: interferon alpha and beta receptor subunit 1 (IFNAR1), human, extracellular domain, amino acids 28-424 of hIFNAR1 (GenBank CAA42992.1); The cloning paragraph says N-terminal 6xHis tag (modified pFastBac-1); the SPR paragraph says capture by C-terminal His-tags; The reverse primer encodes ...PGNTSK-stop; also called hIFNAR1-ECD; WT IFNAR1-ECD; not shown: 6xHis, N-terminal, kept
T2 sequence (looked up): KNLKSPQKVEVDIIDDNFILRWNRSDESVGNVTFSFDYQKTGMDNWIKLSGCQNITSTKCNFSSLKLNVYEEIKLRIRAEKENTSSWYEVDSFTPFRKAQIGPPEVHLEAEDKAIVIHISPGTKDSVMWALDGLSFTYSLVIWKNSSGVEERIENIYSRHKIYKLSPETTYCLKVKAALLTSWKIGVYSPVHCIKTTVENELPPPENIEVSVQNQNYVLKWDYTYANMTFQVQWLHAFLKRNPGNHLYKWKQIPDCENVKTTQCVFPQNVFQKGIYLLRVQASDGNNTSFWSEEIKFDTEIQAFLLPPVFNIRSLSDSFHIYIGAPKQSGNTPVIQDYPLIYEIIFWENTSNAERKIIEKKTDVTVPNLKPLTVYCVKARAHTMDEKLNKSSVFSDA

B1: human IFN-β (ReBif) (ligand, UniProt P01574 22-187, looked up)
chain: MSYNLLGFLQRSSNFQCQKLLWQLNGRLEYCLKDRMNFDIPEEIKQLQQFQKEDAALTIYEMLQNIFAIFRQDSSSTGWNETIVENLLANVYHQINHLKTVLEEKLEKEDFTRGKLMSSLHLKRYYGRILHYLKAKEYSHCAWTIVRVEILRNFYFINRLTGYLRN
notes: interferon beta, human; the drug product ReBif; also called hIFN-β; source: ReBif (hIFN-β), dialyzed into TBS
Kd [1]: 28.1 nM
Kd [2]: 15.8 nM
